According to the DeepSol protein solubility set:

Test: soluble on expression in E. coli; label from the status in PepcDB or PDB records

Row | Sequence | soluble on expression in E. coli
1 | GRRIQGQRRGRGTSTFRAPSHRYKADLEHRKVEDGDVIAGTVVDIEHDPARSAPVAAVEFEDGDRRLILAPEGVGVGDELQVGVDAEIAPGNTLPLAEIPEGVPVCNVESSPGDGGKFARASGVNAQLLTHDRNVAVVKLPSGEMKRLDPQCRATIGVVGGGGRTDKPFVKAGNKHHKMKARGTKWPNVRGVAMNAVDHPFGGGGRQHPGKPKSISRNAPPGRKVGDIASKRTGRGGNE | soluble
2 | MSAPAAGATAGGDDAADRNVEMWKIKRLIKSLELARGNGTSMISLIIPPKDQVARIQRMLAEEYGTASNIKSRVNRLSVLGAITSVQGRLKLYNKVPPNGLVVYCGTIMTDEGKEKKVNIDFEPFKAINTSLYLCDNKFHTEALQGLLADDNKFGFIIMDGNGCLFGTLQGNTREVLHKFTVDLPKKHGRGGQSAVRFARLRNEKRHNYVRKVAENSVEQFIKNDKVTVAGLILAGSADFKTELGQSDMFDQRLQAKMIKTVDIAYGGENGFNQAIELAADTLASVKFIQEKKLIGGYFDEISQDTGKYVFGVKDTLAALEMGAIETLICWENLDIVRYKMKNSLGEDILLNLRPDEEKDKSHFTDSETGQDMEIIETMPLLEWFANNYKNFGAALEIVTDKSQEGAQFVRGFGGIGGLLRYRVDLAHVDLEDELDNIDLDDY | not soluble
3 | MGHHHHHHSHMMSPGLLLKPWWGGAQSEMGRNGMLEGCSVMSVGASRLGEGRVRPRAHSRRPVTRPRWRAAGPCTGTCQGGSHSRTLVLRLKAVSTTPTSANDLVQIKFRRDGGNRVVEALNLSEKRKDRKALCFSQSLHLQGEEIELTALSRSFQLRNVYFMISNI | not soluble
4 | MKLTVVGLGYIGLPTSIMFAKHGVDVLGVDINQQTIDKLQSGQISIEEPGLQEVYEEVLSSGKLKVSTTPDASDVFIIAVPTPNNDDQYRSCDISLVMRALDSILSFLEKGNTIIVESTIAPKTMDDFVKPVIENLGFTIGEDIYLVHCPERVLPGKILEELVHNNRIIGGVTEACIEAGKRVYRTFVQGEMIETDARTAEMSKLMENTYRDVNIALANELTKICNNLNINVLDVIEMANKHPRVNIHQPGPGVGGHCLAVDPYFIIAKDPENAKLIQTGREINNSMPAYVVDTTKQIIKVLSGNKVTVFGLTYKGDVDDIRESPAFDIYELLNQEPDIEVCAYDPHVELDFVEHDMSHAVKDASLVLILSDHSEFKNLSDSHFDKMKHKVIFDTKNVVKSSFEDVSYYNYGNIFNFIDK | not soluble
5 | MIKPVGSDELKPLFVYDPEEHHKLSHEAESLPSVVISSQAAGNAVMMGAGYFSPLQGFMNVADAMGAAEKMTLSDGSFFPVPVLCLLENTDAIGDAKRIALRDPNVEGNPVLAVMDIEAIEEVSDEQMAVMTDKVYRTTDMDHIGVKTFNSQGRVAVSGPIQVLNFSYFQADFPDTFRTAVEIRNEIKEHGWSKVVAFQTRNPMHRAHEELCRMAMESLDADGVVVHMLLGKLKKGDIPAPVRDAAIRTMAEVYFPPNTVMVTGYGFDMLYAGPREAVLHAYFRQNMGATHFIIGRDHAGVGDYYGAFDAQTIFDDEVPEGAMEIEIFRADHTAYSKKLNKIVMMRDVPDHTKEDFVLLSGTKVREMLGQGIAPPPEFSRPEVAKILMDYYQSINS | soluble
6 | MLLLTPGPTPIPERVQKALLRPMRGHLDPEVLRVNRAIQERLAALFDPGEGALVAALAGSGSLGMEAGLANLDRGPVLVLVNGAFSQRVAEMAALHGLDPEVLDFPPGEPVDPEAVARALKRRRYRMVALVHGETSTGVLNPAEAIGALAKEAGALFFLDAVTTLGMLPFSMRAMGVDYAFTGSQKCLSAPPGLAPIAASLEARKAFTGKRGWYLDLARVAEHWERGGYHHTTPVLLHYALLEALDLVLEEGVAARERRAREVYAWVLEELKARGFRPYPKASPLPTVLVVRPPEGVDADRLVRALYAEGVAVAGGIGPTRGQVLRLGLMGEGARREAYQAFLKALDRALALA | soluble
7 | MKNIKMPVLVLAAEKDHITPPESVTAFFEKIPSKDKKLLLSDKGHIGLTVSGSSHRKIWPEAIKWVVERSK | not soluble
8 | MGSDKIHHHHHHMTDFSQLPNAAGVGYKPQHFQNIIDGSGAVDWLEIHAENYMGDGGRPLAQLRHLAERFPISVHGVGLSIGGEGPLDPEHLARLKHLVDWLKPASFSEHLAWSTHDTHFYNDLLPLPYTDATLARICDHIDMVQTLLGRRMLLENPSSYLAFAESTWEEPAFLHEIAKRTGCGLLLDVNNVFVSATNLGYRPQDYIDAYPLDLVGEIHLGGHDEDEDDHGRPLLIDSHGAEVVDPVWSLLSYTLTRSGPKPTLVEWDTDVPEWSVLEAEAARAANALRTAKVAA | not soluble
